For experiment [1], the target named is T1, soluble p97 (amino acids 20-710 of human p97 precursor) (Homo sapiens, UniProt P08582).
T1 construct: Soluble p97 (amino acids 20-710 of human p97 precursor); 6xHis; made in house
T1 sequence (P08582 20-710): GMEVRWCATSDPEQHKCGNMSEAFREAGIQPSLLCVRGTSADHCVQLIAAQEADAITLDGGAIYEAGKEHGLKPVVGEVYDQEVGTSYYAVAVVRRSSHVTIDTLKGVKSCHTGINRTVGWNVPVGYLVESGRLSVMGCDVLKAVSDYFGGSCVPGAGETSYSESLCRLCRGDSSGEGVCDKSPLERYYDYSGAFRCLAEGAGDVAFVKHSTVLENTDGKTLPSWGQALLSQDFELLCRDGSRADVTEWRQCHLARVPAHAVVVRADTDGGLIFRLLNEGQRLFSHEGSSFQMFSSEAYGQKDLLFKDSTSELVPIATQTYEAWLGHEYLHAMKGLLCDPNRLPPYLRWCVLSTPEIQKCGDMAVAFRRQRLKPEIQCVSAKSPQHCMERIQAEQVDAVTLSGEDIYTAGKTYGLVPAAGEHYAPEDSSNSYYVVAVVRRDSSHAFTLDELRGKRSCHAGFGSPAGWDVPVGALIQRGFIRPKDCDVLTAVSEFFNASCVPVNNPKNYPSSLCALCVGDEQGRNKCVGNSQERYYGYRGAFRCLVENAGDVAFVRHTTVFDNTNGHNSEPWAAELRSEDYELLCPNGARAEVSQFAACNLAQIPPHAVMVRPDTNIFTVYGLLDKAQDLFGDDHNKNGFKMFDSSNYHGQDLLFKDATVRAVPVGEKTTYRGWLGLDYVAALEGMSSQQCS
Description: solid-phase p97 binding assay of crude refolded fusion proteins (refolding efficiency). Conditions: crude refolds normalized on β-lactamase activity. As for the experimental part: For small scale expression BL21([DE3) (Novagen) were transformed with parental and mutant constructs and single colonies was used to inoculate 100 ml Terrific Broth II (TB) (QBIOGENE). Cells were induced at an OD of 1.0 with 1 mM IPTG (Sigma). Cells were harvested following overnight incubation and inclusion bodies were purified from the cell extracts using B-Per (Novagen) according to the manufacturers instructions. Inclusion body pellets were resuspended in 8 M urea, 2 mM DTT, 50 mM Tris.Cl pH 8.0 at a concentration of 50 mg/ml. Inclusion bodies were refolded overnight in a 50-fold dilution of 2 M urea, 0.3 M L-arginine, 50 mM Tris.Cl pH 8.0, 1 mM reduced glutathione, 0.1 mM oxidized glutathione. Protein was then dialyzed into PBS and fusion protein concentration was determined by measuring β-lactamase activity using colorimetric substrate nitrocefin.
Soluble p97 (amino acids 20-710 of human p97 precursor) was cloned into pSecTag2 (Invitrogen), incorporating an Ig Kappa leader sequence and a 6× his tag, and transfected into CHO cells. Stable transformants were selected and secreted protein was purified from conditioned medium on a metal chelate affinity column. Assays were performed by coating polystyrene 96-well plates with 2 μg/ml soluble p97 in PBS overnight. The plates were blocked by adding 1% bovine serum albumin in PBS for 1 hour at room temperature. Plates were emptied and fresh blocking reagent containing serial dilutions of L49-sFv-bL samples was added. Following 1 hour at room temperature the plates were washed and developed with 0.1 ml of colorimetric β-lactamase substrate nitrocefin solution at 0.1 mM in PBS containing 1% DMSO. Absorbance measurements were read in an ELISA plate reader using a 490 nm filter with 610 m as the reference wavelength.
The unusual residues in the L49 scFv framework were mutated to the most frequently occurring residue for that position in the Kabat database (Chowdhury et al., 1998, J. Mol. Biol. 281, 917-928). […] Binding to p97 was then determined using a solid-phase binding assay as described in Section 6.1.3, supra.

The target of the next experiment is T2, Recombinant p97 (Homo sapiens, UniProt P08582).
T2 construct: Soluble p97 (amino acids 20-710 of human p97 precursor); 6xHis; made in house
T2 sequence (P08582 20-710): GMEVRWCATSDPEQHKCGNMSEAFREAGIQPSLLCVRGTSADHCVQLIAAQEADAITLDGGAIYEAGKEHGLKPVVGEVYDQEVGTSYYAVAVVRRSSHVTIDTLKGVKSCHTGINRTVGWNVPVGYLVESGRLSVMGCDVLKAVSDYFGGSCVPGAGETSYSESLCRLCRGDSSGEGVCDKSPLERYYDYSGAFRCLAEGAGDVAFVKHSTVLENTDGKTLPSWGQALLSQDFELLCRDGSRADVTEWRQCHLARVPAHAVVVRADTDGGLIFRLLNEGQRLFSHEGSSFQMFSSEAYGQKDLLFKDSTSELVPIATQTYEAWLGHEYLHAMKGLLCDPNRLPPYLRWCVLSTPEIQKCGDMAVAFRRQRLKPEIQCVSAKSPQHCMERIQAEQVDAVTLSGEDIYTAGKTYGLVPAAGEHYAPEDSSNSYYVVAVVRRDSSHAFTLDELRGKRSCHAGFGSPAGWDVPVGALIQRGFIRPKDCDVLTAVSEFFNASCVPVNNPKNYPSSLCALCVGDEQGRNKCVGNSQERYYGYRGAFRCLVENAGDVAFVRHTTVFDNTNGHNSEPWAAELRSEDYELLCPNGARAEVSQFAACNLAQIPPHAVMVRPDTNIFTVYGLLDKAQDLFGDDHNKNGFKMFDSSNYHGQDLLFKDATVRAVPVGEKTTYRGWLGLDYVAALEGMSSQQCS
Description: binding affinity by surface plasmon resonance (Biacore 2000). Conditions: 25° C., immobilized p97, 1:1 model, error in last digit in parentheses. On the procedure:
The buffer used in the study was PBS, 0.005% P20, 0.2 mg/mi BSA. Antigen was immobilized on one flow cell surface of a CM5 sensor chip and the others were left blank to serve as reference surfaces. For each scFv, triplicates of 0, 0.5, 2.8, 8.3, 25, 75 and 225 nM were injected across the immobilized antigen. The association and dissociation phases were monitored for 1 and 20 minutes, respectively. The antigen surface was regenerated with four 18-second pulses of 2.5 mM NaOH between injections.
The binding affinities of double mutants FP960 and FP965 and triple mutants FP990 and FP999 were compared to the parental molecule by surface plasmon resonance. Recombinant p97 was immobilized on a BIACore CM5 sensor chip and varying concentrations of each scFv fusion protein were injected across the chip in triplicate.
On the technique in general: SPR reads the build-up and loss of mass on a sensor chip optically.

B1: FP930: L49-sFv-bL with mutation K H39 Q (protein)
scFv: MEVQLQESGPSLVKPSQTLSLTCSVTGDSITSGYWNWIRQFPGNKLEYMGYISDSGITYYNPSLKSRISITRDTSKNQYYLQLNFVTAEDTATYNCARRTLATYYAMDYWGQGTSVTVSSGSTSGSGKPGSGEGSTKGDFVMTQTPLSLPVSLGDQASISCRASQSLVHSNGNTYLHWYLQKPGQSPKLLIYRVSNRFSGVPDRFSGSGSGTDFTLKISRVEAEDLGVYFCSQSTHVPPTFGGGTKLEIKRTPVSEKQLAEVVANTITPLMKAQSVPGMAVAVIYQGKPHYYTFGKADIAANKPVTPQTLFELGSISKTFTGVLGGDAIARGEISLDDAVTRYWPQLTGKQWQGIRMLDLATYTAGGLPLQVPDEVTDNASLLRFYQNWQPQWKPGTTRLYANASIGLFGALAVKPSGMPYEQAMTTRVLKPLKLDHTWINVPKAEEAHYAWGYRDGKAVRVSPGMLDAQAYGVKTNVQDMANWVMANMAPENVADASLKQGIALAQSRYWRIGSMYQGLGWEMLNWPVEANTVVETSFGNVALAPLPVAEVNPPAPPVKASWVHKTGSTGGFGSYVAFIPEKQIGIVMLANTSYPNPARVEAAYHILEALQ
B1: the “antigen binding of refolded mutant compared to parental L49-sFv-bL (FP95)” value (“antigen binding of refolded mutant” below) in experiment [1] is reported as “significant increases in antigen binding”.

B2: FP945: L49-sFv-bL with mutation F H82B S (protein)
scFv: MEVQLQESGPSLVKPSQTLSLTCSVTGDSITSGYWNWIRKFPGNKLEYMGYISDSGITYYNPSLKSRISITRDTSKNQYYLQLNSVTAEDTATYNCARRTLATYYAMDYWGQGTSVTVSSGSTSGSGKPGSGEGSTKGDFVMTQTPLSLPVSLGDQASISCRASQSLVHSNGNTYLHWYLQKPGQSPKLLIYRVSNRFSGVPDRFSGSGSGTDFTLKISRVEAEDLGVYFCSQSTHVPPTFGGGTKLEIKRTPVSEKQLAEVVANTITPLMKAQSVPGMAVAVIYQGKPHYYTFGKADIAANKPVTPQTLFELGSISKTFTGVLGGDAIARGEISLDDAVTRYWPQLTGKQWQGIRMLDLATYTAGGLPLQVPDEVTDNASLLRFYQNWQPQWKPGTTRLYANASIGLFGALAVKPSGMPYEQAMTTRVLKPLKLDHTWINVPKAEEAHYAWGYRDGKAVRVSPGMLDAQAYGVKTNVQDMANWVMANMAPENVADASLKQGIALAQSRYWRIGSMYQGLGWEMLNWPVEANTVVETSFGNVALAPLPVAEVNPPAPPVKASWVHKTGSTGGFGSYVAFIPEKQIGIVMLANTSYPNPARVEAAYHILEALQ
For B2, in experiment [1], the “antigen binding of refolded mutant” value is “significant increases in antigen binding”.

B3: FP950: L49-sFv-bL with mutation N H91 Y (protein)
scFv: MEVQLQESGPSLVKPSQTLSLTCSVTGDSITSGYWNWIRKFPGNKLEYMGYISDSGITYYNPSLKSRISITRDTSKNQYYLQLNFVTAEDTATYYCARRTLATYYAMDYWGQGTSVTVSSGSTSGSGKPGSGEGSTKGDFVMTQTPLSLPVSLGDQASISCRASQSLVHSNGNTYLHWYLQKPGQSPKLLIYRVSNRFSGVPDRFSGSGSGTDFTLKISRVEAEDLGVYFCSQSTHVPPTFGGGTKLEIKRTPVSEKQLAEVVANTITPLMKAQSVPGMAVAVIYQGKPHYYTFGKADIAANKPVTPQTLFELGSISKTFTGVLGGDAIARGEISLDDAVTRYWPQLTGKQWQGIRMLDLATYTAGGLPLQVPDEVTDNASLLRFYQNWQPQWKPGTTRLYANASIGLFGALAVKPSGMPYEQAMTTRVLKPLKLDHTWINVPKAEEAHYAWGYRDGKAVRVSPGMLDAQAYGVKTNVQDMANWVMANMAPENVADASLKQGIALAQSRYWRIGSMYQGLGWEMLNWPVEANTVVETSFGNVALAPLPVAEVNPPAPPVKASWVHKTGSTGGFGSYVAFIPEKQIGIVMLANTSYPNPARVEAAYHILEALQ
Regarding B3, in experiment [1], the “antigen binding of refolded mutant” value was “significant increases in antigen binding”.

B4: FP965: L49-sFv-bL double mutant K H39 Q, N H91 Y (protein)
scFv: MEVQLQESGPSLVKPSQTLSLTCSVTGDSITSGYWNWIRQFPGNKLEYMGYISDSGITYYNPSLKSRISITRDTSKNQYYLQLNFVTAEDTATYYCARRTLATYYAMDYWGQGTSVTVSSGSTSGSGKPGSGEGSTKGDFVMTQTPLSLPVSLGDQASISCRASQSLVHSNGNTYLHWYLQKPGQSPKLLIYRVSNRFSGVPDRFSGSGSGTDFTLKISRVEAEDLGVYFCSQSTHVPPTFGGGTKLEIKRTPVSEKQLAEVVANTITPLMKAQSVPGMAVAVIYQGKPHYYTFGKADIAANKPVTPQTLFELGSISKTFTGVLGGDAIARGEISLDDAVTRYWPQLTGKQWQGIRMLDLATYTAGGLPLQVPDEVTDNASLLRFYQNWQPQWKPGTTRLYANASIGLFGALAVKPSGMPYEQAMTTRVLKPLKLDHTWINVPKAEEAHYAWGYRDGKAVRVSPGMLDAQAYGVKTNVQDMANWVMANMAPENVADASLKQGIALAQSRYWRIGSMYQGLGWEMLNWPVEANTVVETSFGNVALAPLPVAEVNPPAPPVKASWVHKTGSTGGFGSYVAFIPEKQIGIVMLANTSYPNPARVEAAYHILEALQ
As to B4, in the experiment with Recombinant p97, the ka is 4.000(6) × 10^5 M^−1 s^−1 and the kd is given as 7.65(1) × 10^−4 s^−1.

B5: FP960: L49-sFv-bL double mutant F H82B S, N H91 Y (protein)
scFv: MEVQLQESGPSLVKPSQTLSLTCSVTGDSITSGYWNWIRKFPGNKLEYMGYISDSGITYYNPSLKSRISITRDTSKNQYYLQLNSVTAEDTATYYCARRTLATYYAMDYWGQGTSVTVSSGSTSGSGKPGSGEGSTKGDFVMTQTPLSLPVSLGDQASISCRASQSLVHSNGNTYLHWYLQKPGQSPKLLIYRVSNRFSGVPDRFSGSGSGTDFTLKISRVEAEDLGVYFCSQSTHVPPTFGGGTKLEIKRTPVSEKQLAEVVANTITPLMKAQSVPGMAVAVIYQGKPHYYTFGKADIAANKPVTPQTLFELGSISKTFTGVLGGDAIARGEISLDDAVTRYWPQLTGKQWQGIRMLDLATYTAGGLPLQVPDEVTDNASLLRFYQNWQPQWKPGTTRLYANASIGLFGALAVKPSGMPYEQAMTTRVLKPLKLDHTWINVPKAEEAHYAWGYRDGKAVRVSPGMLDAQAYGVKTNVQDMANWVMANMAPENVADASLKQGIALAQSRYWRIGSMYQGLGWEMLNWPVEANTVVETSFGNVALAPLPVAEVNPPAPPVKASWVHKTGSTGGFGSYVAFIPEKQIGIVMLANTSYPNPARVEAAYHILEALQ
On to B5, for which, in the experiment with Recombinant p97, the ka is on record as 3.640(4) × 10^5 M^−1 s^−1 and the kd was 6.383(7) × 10^−4 s^−1.

These data come from US20060160174A1, “Modified l49-sfv exhibiting increased stability and methods of use thereof” (priority 2002, published 2006).
